Measurements from the DeepSol protein solubility set.

Experiment: soluble on expression in E. coli; label from the status in PepcDB or PDB records

| Sequence | soluble on expression in E. coli |
| --- | --- |
| MSLEITKIEVHVIGPEDKRYTWSEDIEEVYQSNTLIKIFTDEDIVGEAAIWNATYFEYDKYTAESLRHLLPILIGKDPLNREEILYDIRPRVFPQPPGAQALIDNALWDILGKKCKSPIYKILGGRRDKIKSYASTVMYNTIDEYLKVVDEMKEQGFSAVKFHTYCIPKKDLELAEAARKAFPSMSFMIDAENNYDLESSLIVAKKLEKLEFTWFEAPLPDYDFAGYKKITDSVGIKVIPSGNWVVDLQRFSEAIHNKVWSATRTDMAMMGGITNCKKAIDLSSAGGLDCEIMSWGYTLVSAANLHLMLSSDNCSYYEQPLPYNNFEFGMKDVLRTSQDGYMYAPTKPGLGMEIDWDKMMSKNIYSITCEEGKKISLVHSEGHHHHHH | soluble |
| MSLEKKDNVFTFGNALSLYYKDYETPLIINTDDINQFKRSDKFYVLGNEFNAEIKYPYFMSSLYCIESGDIVMVYNAVELIQRPRLIIKALMALRKKYGFSKLIYLPGIGDPYIIPVLVYAGADLFDDTYIKEESINNIKYTMMGKTKSSDNNINDNLKFANDIISLLRSSIKTGTLREFVEKFQYSSRAIEMLRIIDNDYFSDYSMVFPVYTPYIKANTIESLNRPDIVSYRNYIKNDYSKPDVENLLILPCSAKKPYSKSKSHKKILSRIEKYRKYIHELIVTSPVGLVPRELESMYPAAFYDIPVIGLWYEDEKKMINDLLKSYLSKNRYKNIIAYIDEDLNFIKSSGNIILIEGNILSEEKLSELESTLRDLTINSPKMDHLFNYKSMLSYQFGTWIKDYLDDIKISRSYNMDMVTRNGRALFVFNEKLGRFTINRNGAGIFLNAGKKIVYIDDFKPTSYVFNAGIKDATDDIKPGDEVIIVHNNEIRGVGTALISYRAMIDLDHGAGVKVREGHHHHHH | soluble |
| MSLEKKFVIWGRNPIIEALRAGRNLEKIYVAHDSHPPKELLELAKKRGVKVQRISRKKVEELAGTKKTQGVVALLSPVNYVSPHELFKECIEKKSFFIVIDHITDPQNVGNLLRTCEVLGGVGALISKDRTSPINETVVKASSGAVFHLKISKVSSLSRELKNFQKMGGWVFAVEKGGKDIREVDIPLPVALVLGSEDKGVSKSVLDISDQIVTIPMKGKVTSLNVGSAGAIAMWETAKKILEGHHHHHH | soluble |
| MSLEKKMEEKKKIKLIATDMDGTLVNDAKEVPASFAPWVLSHPDQQMVIASGRPYYTNEELFKEIKDHLIFIGDNGGLIYQQGQVLAKAGITAEEAKFCLDLFKDEPLANPILCGASQAICHDPKGDRNFLKQLDTYYIKRRYVEDLEAEVNSDEIIKFTVYIEGGAAESIYRQLPEMPGNLSAVLAGPEWIDIVNKDANKGAAVKKIADLKGIKQDEILAFGDYLNDLTMLEAAGTSYAMVNGHPDLKKIADHIAPSNNDEGVMQILRKLFDEGHHHHHH | soluble |
| MSLEKKVVKFFTVDNMEKEEAYLNEMAQNGWFFQKYKSFRYHFKQGEPAKYSYAIDFKENEGDEDAYKTLFEDAGWETVFSYPVLNGNWMYFRKAVAPGETEEAIFTDETSLIQLYKNIRKREGHHHHHH | soluble |
| MSLEKLLRYLNDNDADKWQKNREKLDDETKAYYAEDLSLMDVLNDLWNGQSEQAATLYFGCYEKAAQNNFPSICEGEKIPLSQIRDKADQSIINLLEASKDKIPFSRALLDSIHATEYPVDSAMLQRLQNIREVALLEGMLKAPTPIIYQTYVKEYPNGKFIAQVNASENVRLYQLVKTAPTPANFKAFFEDPEMQKYYQDRGPRPYLAEVRTLYDDFLFQRIDSLKKEGNATAIRQIIDDYKNTPYLSTGARTHLNDLEYLSEKADFELLKPAIVNSESLGLLQEFLKTHKYKEFRDQAKNLRAPFILQAIVSTPTTVKYYTQGRLIKCCETDSTGNITTSYTYNDKGQLTTTLSVTEKNGQPINEVQTSRLYDPQGHCIFEVKTNPKTKTDFYRRARRIGIDGSIESDSLKYMDGRYTVSSYNKQGLLTETKEYNKNGEMEGYTVNKYDDKGRMTESQHQNMLFVNSPNQILSQKELYEYDKYGYLTRIVYQRIFGNSQKTSGCLTCLYDEYGNRIDGDSYYEYDNTGQWICRTSYDNPQQVERIQYIYKEGHHHHHH | soluble |
| MSLELDAVSRSYKRWAPIYDFSFGKVSESPRRRTAAHVNARGGRVLEVGVGTGLSLPLYSHRVAVTGIDFSHEMLARAREKVEEMGLEPVKELRQMDARELDFPDETFDTVVAMFLVSVVPEPERVVSEMARVCRKGGEVVIVNHFARDKGPLAAVEKALARFENTLGWHSDFAIERVTADPRLEVVEQTPMSPGGLFTFLRFQRREGHHHHHH | soluble |
| MSLELRPLHPLDGLLKFAGLARSTFYYQQKVLLVDDKYAGLKDLIQATFYEHKGRYGYRRITAALRRAGHLVNHKTVQKLMGQLGLKSLIRVKKYRSYKGETGKAAPNLLKRDFKAQYLNQKWATDVTEFKVGGQKLYLSPIMDLYSGEIISYAIARRPLYSMVDEMLEGAFKRLGPHEKPILHSDQGWQYRMPIYQRLLNENSIAASMSRKGNCYDNAAIESFFSTLKSEFFYLNKFNDLDELQAGIEEYIEYYNHSRIKLKLNGLSPVEYRMQAAKAAEGHHHHHH | not soluble |
| MSLELYAASYILPIASPPIPGGAVAVHDGCIVETGTLAELRSRHSGPVHDFPGCAILPGLVNAHTHLELTHFPSWKIRKGIDYSPRTYVDWIIQVIKIRRALSPQELELSVREGLRICLEAGTTAIGEILTDRSLIPLYADSGLRGRLLFEAIGHDPVRNAQLVEELDAAIASFSGGSFLPGISPHAPHTVAEHLHQDVYRLAYERNVPRVIHLAESREESDFFFDSSGKIAEFLYPHVRWESYLPAPRRTTATAWLDGLGVLNGTISAVHCVHLTPSDAEILAKRGVGVVLCPRSNDKLAVGRAPVVLLKRLGVPLALGTDSLASNDSLSLWDEMRYLLDTFPGIFTPTEALSMTTIGSARQLALADRTGSLDKGKHADFLVMKLPGRNGSGEALHEALIHSGEILQVFLAGNLVVSREAFSEGHHHHHH | soluble |
| MSLEMLGIDVVIPDISYLIERADRVKAIFLTHGHDENIGGVFYLLNKLSVPVYGTKLTLALLREKLKQYGHNRKTDLREIHSKSVITFQSTKVSFFRTIHSIPDSVGVSFKTSLGSIVSAGDFKFDQTPALNQTCDIGEIAKIGNSGVLALLSDSANVERPGYTPSEAAVSGEISDALYNSQNRVIIAVFASNINRIQQVIHAAAQNGRKIAVAGKNLQSVLQLARKLGYIEADDELFISVQDVKKYPKREVAIITAGSQGEPLAALTRMANKAHKQLNIEEGDTVVIASTPIPGQELIYSKTVDLLARAGAQVIFAQKRVHVSGHGSQEELKLMINLLKPKYLIPVNGEYRMQKAHSKIAEETGMKRSDIFLIEKGDVVEFRGQNVKIGDKVPYGNILIDGLGVGDIGNIVLRDRRLLSQDGILEGHHHHHH | not soluble |
| MSLEPTAPSLTEEDLTEVKKDALENLRVYLCEKIIAERHFDHLRAKKILSREDTEEISCRTSSRKRAGKMLDYLQENPKGLDTLVESIRREKTQNFLIQKITDEVLKLRNIKLEHLKGLKCSSCEPFPDGATNNLSRSNSDESNFSEKLRASTVMYHPEGESSTTPFFSTNSSLNLPVLEVGRTENTIFSSTTLPRPGDPGAPPLPPDLQLEEEGTCANSSEMFLPLRSRTVSREGHHHHHH | not soluble |
| MSLEQPGQPPAHSLVSLRGSGHHVAIVDRSDGRLLGTIDSARAASQVHPGAVYLHQGETFVIEELDDQVALAVPDQPDYQTFARSTTDIRIVGEVDKVCNPAPGLWVSNLVVEVTDRVVGYTMKASDGSVLAMVPLQMPPQTLVTRAVAYTVDPLVLDSLGITDVPGALHAAEHAAIGLLPLIATCDRWDIGGVSTAEHPDTGLPTVFVYDGHPGGAGFADCGYERFPEWVATTFEAIRSCQCESGCPSCVQSPKCGNGNDPLSKEGAIALLGAMCTMLGVTEGHHHHHH | not soluble |
| MSLERQEHSPLILLGEDEKFQATIVKDVLERKNFDVRIAPNGKVAYEMFCENRLFQLVIVDVFMPVVDGLRSVKLIRQYESNHQIERCPIIICSGNESIIRSGNNSQDTGGDAFVSKPFRPSLIDLVYKLIGKKEGHHHHHH | not soluble |
| MSLEVYYPGSVVFPADATLEQKVEMAAKVVPTLQQLAWQQMELTAFLHFGINTFTDSEWGDGKEDPALFNPVELDARQWVRILHEAGFRMVILTAKHHDGFCLWPTATTRHSVASSPWREGKGDVVKEVRAACEEYGMKFGIYLSPWDRNAECYGDSHRYNRFFVSQLTELLTHYGEVHEVWFDGANGEGPNGKRQEYDWETFYDTIRRLQPQAVMAIMGDDVRWVGNERGLGRTTEWSATVLTPGIYSRSKTERNRLGIRENSPDLGSREVLKEAGEIFWYPSEVDVSIRPGWFYHAAEDKKVKSLDKLVDIYFQSVGYNSVLLLNVPPDRRGLIHEADALRLKEWADYLGRAFAHDRVVDSARYAVVQGHAVEEYALESKTHINILMLQEDITKGQRTEAFTVEAWVDGAWQEIGRGTTIGYKRLLRIPAVETDRIRVRIEQEGHHHHHH | not soluble |
| MSLEWQDLAQLPVSIFKDYVTDAQDAEKPFIWTEVFLREINRSNQEIILHIWPMTKTVILGMLDRELPHLELAKKEIISRGYEPVVRNFGGLAVVADEGILNFSLVIPDVFERKLSISDGYLIMVDFIRSIFSDFYQPIEHFEVETSYCPGKFDLSINGKKFAGLAQRRIKNGIAVSIYLSVCGDQKGRSQMISDFYKIGLGDTGSPIAYPNVDPEIMANLSDLLDCPMTVEDVIDRMLISLKQVGFNDRLLMIRPDLVAEFDRFQAKSMANKGMVSRDEEGHHHHHH | soluble |
| MSLFIISQVFSPEGQRVLTMQFTKWFIALPLAVTALSGCSLLERLVYRIDINQGNYVDQQSVDQLKFGMSKDQVRFVLGSPMLVENGYPDTWYYIYHHTQGHNDPVQKNLIVKFNDGGKLVNVAGDFPAGDSFFEGVNEGHHHHHH | soluble |
| MSLFKKNFDIKDDRNLTMLVDFYELTMGNGYLNKNVGNKTAYFDMFFRRVPDNGGYCIMAGVQQLTEYLSNLRFTKEDIDYLRSKHEFSEEFLSYLKDFKFECDVWAVPEGNPVFPNEPLVTVKGPAIQAQFVETMILLTINHQTLIATKANRICRAAGNRPVMEFGSRRAQGYDGAIYGARAAVIGGCSSTACTISEQMFGVNAVGTMAHSWVQLFDNEFEAFKAWADVYPENCVLLVDTYNVLKSGLPNAIKVFDEVLKPKGIRPSGIRIDSGDITYLTKKCRKILDEAGYSDCKIVISNSLDEHIITDVLLQGAEVDSFGVGERLITAKSEPVFGGVFKLCAVENDEGNIVPKIKISENQEKITNPGFKKIYRLFDKETDKALADLITLNDEVIDETKPLEIFDPIYTWKKKKLTHYYVKDLRVQLFKKGELVYENPEVLEIRNIAKKETEKLWAEVLRLENPHTYYVDLSKKLWDLKHNLLEKYSNAEGHHHHHH | soluble |
| MSLFRGFGRSTLAKIGSTEISTEQFRQTYNDRLQQIGRQFGRPLTPDQARAIGIDRQVLQQTIAEAALDEDARRLGLGQSDADTMKSILEDPNFKGANGQFDANRFQQLIRQFGFTEQRYLAEQRRVALRRQIAGSLTAGLEAPKTLMQALSQFQSEERAIDYLKLTDAQAGTIAAPSPADLTAFYDSHKAQFRAPEYRKISFLVVTPESIAKWAEVSDADAQKLFEQRKDKLSTPEKRQLLQIVFPSVEEAQAGRAKIASGTSFADLAKERGVKPADLDLGLVSQSEMLDQKVAAAAFALPLNEVSQPVQGQFGTVLLEVTKIETEGHHHHHH | soluble |
